Experimental data as given in paper PMC6414199, “Bim escapes displacement by BH3-mimetic anti-cancer drugs by double-bolt locking both Bcl-XL and Bcl-2” (eLife, 2019).
Where a chain is given by its changes, count along the chain named. In names and notes the source's numbering stands.

B1: BimL-dCTS, Alexa568-labelled (domain or fragment)
chain: MAKQPSDVSSECDREGGQLQPAERPPQLRPGAPTSLQTEPCDRSPAPMSCDKSTQTPSPPCQAFNHYLSAMASIRQSQEEPEDLRPEIRIAQELRRIGDEFNETYTRRVFANDYREAEDHP
modifications: Alexa568 on a single cysteine
B2: BimL single-cysteine mutant 41C, Alexa568-labelled (natural protein)
chain: MAKQPSDVSSECDREGGQLQPAERPPQLRPGAPTSLQTEPCDRSPAPMSCDKSTQTPSPPCQAFNHYLSAMASIRQSQEEPEDLRPEIRIAQELRRIGDEFNETYTRRVFANDYREAEDHPQMVILQLLRFIFRLVWRRH
modifications: Alexa 568-maleimide on the single cysteine at 41
B3: Venus-BimEL (natural protein, mouse, UniProt O54918-1 1-196, looked up)
chain: MAKQPSDVSSECDREGGQLQPAERPPQLRPGAPTSLQTEPQGNPDGEGDRCPHGSPQGPLAPPASPGPFATRSPLFIFVRRSSLLSRSSSGYFSFDTDRSPAPMSCDKSTQTPSPPCQAFNHYLSAMASIRQSQEEPEDLRPEIRIAQELRRIGDEFNETYTRRVFANDYREAEDHPQMVILQLLRFIFRLVWRRH
notes: BimEL, mouse; GGS linker after Venus; also called ^VBimEL; ^vBimEL; source: MCF-7 and BMK-DKO, transiently transfected, in live cells; not shown: Venus, N-terminal, kept
B4: Venus-BimEL-CTS2A (natural protein, mouse, UniProt O54918-1 1-196, looked up)
chain: B3 chain with R186A, R190A
notes: BimEL, mouse; also called ^VBim-CTS2A; ^vBimEL-CTS2A; source: MCF-7, transiently transfected, in live cells; not shown: Venus, N-terminal, kept
B5: Venus-BimEL-I181E (natural protein, mouse, UniProt O54918-1 1-196, looked up)
chain: B3 chain with I181E
notes: BimEL, mouse; also called ^vBimEL-I181E; source: MCF-7, transiently transfected, in live cells; not shown: Venus, N-terminal, kept
B6: Venus-BimEL-V192E (natural protein, mouse, UniProt O54918-1 1-196, looked up)
chain: B3 chain with V192E
notes: BimEL, mouse; also called ^VBimEL-V192E; ^vBimEL-V192E; source: MCF-7, transiently transfected, in live cells; not shown: Venus, N-terminal, kept
B7: Venus-BimEL-I146Y (natural protein, mouse, UniProt O54918-1 1-196, looked up)
chain: B3 chain with I146Y
notes: BimEL, mouse; also called ^vBimEL-I146Y; source: MCF-7, transiently transfected, in live cells; not shown: Venus, N-terminal, kept
B8: Venus-BimEL-L185E (natural protein, mouse, UniProt O54918-1 1-196, looked up)
chain: B3 chain with L185E
notes: BimEL, mouse; also called ^VBimEL-L185E; ^vBimEL-L185E; source: MCF-7, transiently transfected, in live cells; not shown: Venus, N-terminal, kept
B9: Venus-BimEL-I146Y-L185E (natural protein, mouse, UniProt O54918-1 1-196, looked up)
chain: B3 chain with I146Y, L185E
notes: BimEL, mouse; also called ^vBimEL-I146Y-L185E; source: MCF-7, transiently transfected, in live cells; not shown: Venus, N-terminal, kept
B10: Venus-BimEL-I188E (natural protein, mouse, UniProt O54918-1 1-196, looked up)
chain: B3 chain with I188E
notes: BimEL, mouse; also called ^VBimEL-I188E; ^vBimEL-I188E; source: MCF-7, transiently transfected, in live cells; not shown: Venus, N-terminal, kept

Each binder was assayed against T1, Bcl-XL single-cysteine mutant 152C, Alexa647-labelled (human, UniProt Q07817-1 1-233, Alexa 647-maleimide on the single cysteine at 152) (assay: FRET or BRET; purified Alexa568-labelled BH3 protein (10 nM) and Alexa647-labelled Bcl-XL (40 nM) with liposomes, ABT-263 titrated in; 37 C, 1 h; relative displacements, not absolute affinity). Conditions: both partners purified.
T1 sequence (Q07817 other isoform, or with tags, fused parts or gaps mutant): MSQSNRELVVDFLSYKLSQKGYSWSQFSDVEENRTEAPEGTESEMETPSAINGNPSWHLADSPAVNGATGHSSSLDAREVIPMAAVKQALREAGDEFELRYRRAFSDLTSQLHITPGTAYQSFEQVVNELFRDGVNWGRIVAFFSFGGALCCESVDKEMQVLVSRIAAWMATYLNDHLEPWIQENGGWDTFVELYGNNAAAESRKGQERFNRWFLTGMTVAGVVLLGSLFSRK

Row | Binder | IC50 of ABT-263 for displacing the pair [nM]
1 | B1 | ~200
2 | B2 | > 4000

These binders were tested against T2, mCerulean3-Bcl-2 (human, UniProt P10415 1-239) (assay: FRET or BRET; FLIM-FRET in live MCF-7 cells: mCer3-Bcl-XL or mCer3-Bcl-2 stably expressed (donor), Venus-BH3 protein transiently expressed (acceptor); binding curves of FLIM-FRET efficiency against the Venus:mCer3 intensity ratio, 25 C; untreated, DMSO, 20 uM ABT-263 (18-24 h) or 1.25-20 uM A-1155463, A-1331852, ABT-263; R values interpolated at ratio 0.5 (Bcl-XL) or 0.25 (Bcl-2), ^VBad4E signal subtracted). Conditions: partners not purified.
T2 construct: Bcl-2, human; GGS linker between mCerulean3 and Bcl-2; also called ^CBcl-2; ^cBcl-2; source: MCF-7, stably transfected clone, in live cells; not shown: mCerulean3, N-terminal, kept
T2 sequence (P10415 whole entry): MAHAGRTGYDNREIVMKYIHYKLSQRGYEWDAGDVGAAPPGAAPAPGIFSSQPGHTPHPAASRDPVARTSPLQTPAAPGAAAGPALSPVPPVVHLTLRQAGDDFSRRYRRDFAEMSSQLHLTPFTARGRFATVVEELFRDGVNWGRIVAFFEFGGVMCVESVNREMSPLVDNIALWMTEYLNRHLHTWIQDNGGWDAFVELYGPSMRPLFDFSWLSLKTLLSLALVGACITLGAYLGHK

Row | Binder | R_(ABT-263), % of FRET signal left with 20 uM ABT-263 [%]
3 | B3 | 83.1
4 | B4 | 80.7
5 | B5 | 73.3
6 | B6 | 64.8
7 | B7 | 65.3
8 | B8 | 51
9 | B9 | 36.9
10 | B10 | 63

Each binder was assayed against T3, mCerulean3-Bcl-XL (human, UniProt Q07817-1 1-233) in the same assay as above. Conditions: partners not purified.
T3 construct: Bcl-XL, human; GGS linker between mCerulean3 and Bcl-XL; also called ^CBcl-XL; ^cBcl-XL; source: MCF-7 and BMK-DKO, stably transfected clones, in live cells; not shown: mCerulean3, N-terminal, kept
T3 sequence (Q07817 whole entry): as the sequence (Q07817 other isoform, or with tags, fused parts or gaps mutant) above, with C152V counted along it

Row | Binder | R_(ABT-263), % of FRET signal left with 20 uM ABT-263 [%]
11 | B3 | 86.3
12 | B4 | 88.8
13 | B5 | 63.9
14 | B6 | 70.1
15 | B7 | 88.7
16 | B8 | 41.9
17 | B9 | 40
18 | B10 | 51

These binders were tested against T1, Bcl-XL single-cysteine mutant 152C, … (assay: FRET or BRET; 4 nM Alexa568-labelled BimL or BimL-dCTS with increasing Alexa647-labelled Bcl-XL in samples containing mouse liver mitochondria; apparent Kd). Conditions: both partners purified.

Row | Binder | Kd [nM]
19 | B1 | 35 ± 5
20 | B2 | 3 ± 1

Each binder was assayed against T1, Bcl-XL single-cysteine mutant 152C, … (assay: FRET or BRET; purified proteins with liposomes, protein binding (FRET) and liposome permeabilization measured at the same time, ABT-263 titrated). Conditions: both partners purified.

Row | Binder | IC50 of ABT-263 for FRET of the pair [nM]
21 | B2 | > 700
